Where a chain is given by its changes, count along the chain named.
B1: huSP34.9.6 Fab-HF (Fab, V domains shown)
VH: EVQLVESGGGLVQPGGSLRLSCAASGFTFSDYAMNWVRQAPGKGLEWVGRTRSKYNSYATYYAASVKGRFTISRDDSKNSLYLQMNSLKTEDTAVYYCVRHGNFGNSYVSWFAVWGQGTLVTVSS
VL: QAVVTQPPSLTVSPGGTVTLTCGSSTGAVTTGHYANWVQQKPGQAPRGLIGGTSNRAPGVPARFSGSLSGGKAALTISGAQPEDEAEYYCALWYSARWVFGGGTKLTVL
notes: also called HC9+LC6
B2: huSP34.10.6 Fab-HF (Fab, V domains shown)
VH: B1 VH with N106H
VL: B1 VL
notes: also called HC10+LC6
B3: huSP34.35.6 Fab-HF (Fab, V domains shown)
VH: B1 VH with S30N, S57N, V95M, N106H, V114Y
VL: B1 VL
notes: also called HC35+LC6
B4: huSP34.35.15 Fab-HF (Fab, V domains shown)
VH: B1 VH with S30N, S57N, V95M, N106H, V114Y
VL: B1 VL with S54N, N55K
notes: also called HC35+LC15
B5: huSP34.34.6 Fab-HF (Fab, V domains shown)
VH: B1 VH with S30N, D31T, T51I, S57N, V95M, N106H, V114Y
VL: B1 VL
notes: also called HC34+LC6
B6: huSP34.3.8 Fab-HF (Fab, V domains shown)
VH: B1 VH with S30N, D31T, T51I, S57N, A64D, K89R, N106H, V114Y
VL: B1 VL with P7E, S54N, N55K, S69L, A96N
notes: also called HC3+LC8
B7: huSP34.34.15 Fab-HF (Fab, V domains shown)
VH: B1 VH with S30N, D31T, T51I, S57N, V95M, N106H, V114Y
VL: B1 VL with S54N, N55K
notes: also called HC34+LC15
B8: huSP34.35.10 Fab-HF (Fab, V domains shown)
VH: B1 VH with S30N, S57N, V95M, N106H, V114Y
VL: B1 VL with S54N, N55K, A96N
notes: also called HC35+LC10
B9: huSP34.34.10 Fab-HF (Fab, V domains shown)
VH: B1 VH with S30N, D31T, T51I, S57N, V95M, N106H, V114Y
VL: B1 VL with S54N, N55K, A96N
notes: also called HC34+LC10
B10: huSP34.37.10 Fab-HF (Fab, V domains shown)
VH: B1 VH with S30N, D31T, S57N, V95M, N106H, V114Y
VL: B1 VL with S54N, N55K, A96N
notes: also called HC37+LC10
B11: huSP34.34.18 Fab-H (Fab, V domains shown)
VH: B1 VH with S30N, D31T, T51I, S57N, V95M, N106H, V114Y
VL: B1 VL with G59W, V60T
notes: also called HC34+LC18
B12: huSP34.34.17 Fab-HF (Fab, V domains shown)
VH: B1 VH with S30N, D31T, T51I, S57N, V95M, N106H, V114Y
VL: B1 VL with S54N, N55K, G59W, V60T
notes: also called HC34+LC17
B13: huSP34.34.12 Fab-HF (Fab, V domains shown)
VH: B1 VH with S30N, D31T, T51I, S57N, V95M, N106H, V114Y
VL: B1 VL with S54N, N55K, G59W, V60T, A96N
notes: also called HC34+LC12
B14: huSP34.34.16 Fab-HF (Fab, V domains shown)
VH: B1 VH with S30N, D31T, T51I, S57N, V95M, N106H, V114Y
VL: B1 VL with G59W, V60T, A96N
notes: also called HC34+LC16
B15: huSP34.3.19 Fab-HF (Fab, V domains shown)
VH: B1 VH with S30N, D31T, T51I, S57N, A64D, K89R, N106H, V114Y
VL: B1 VL with P7E, S54N, N55K, S69L
notes: also called HC3+LC19
B16: huSP34.36.10 Fab-HF (Fab, V domains shown)
VH: B1 VH with S30N, T51I, S57N, V95M, N106H, V114Y
VL: B1 VL with S54N, N55K, A96N
notes: also called HC36+LC10
B17: huSP34.35.12 Fab-H (Fab, V domains shown)
VH: B1 VH with S30N, S57N, V95M, N106H, V114Y
VL: B1 VL with S54N, N55K, G59W, V60T, A96N
notes: also called HC35+LC12
B18: huSP34.34.11 Fab-HF (Fab, V domains shown)
VH: B1 VH with S30N, D31T, T51I, S57N, V95M, N106H, V114Y
VL: B1 VL with P7E, S54N, N55K, S69L, I77L, A96N, R97L
notes: also called HC34+LC11
B19: huSP34.34.14 Fab-HF (Fab, V domains shown)
VH: B1 VH with S30N, D31T, T51I, S57N, V95M, N106H, V114Y
VL: B1 VL with A96N
notes: also called HC34+LC14
B20: huSP34.3.13 Fab-HF (Fab, V domains shown)
VH: B1 VH with S30N, D31T, T51I, S57N, A64D, K89R, N106H, V114Y
VL: B1 VL with P7E, S69L, A96N
notes: also called HC3+LC13
B21: huSP34.3.7 Fab-HF (Fab, V domains shown)
VH: B1 VH with S30N, D31T, T51I, S57N, A64D, K89R, N106H, V114Y
VL: B1 VL with P7E, G23R, S54N, N55K, S69L, A96N, R97L
notes: also called HC3+LC7
B22: huSP34.12.8 Fab-HF (Fab, V domains shown)
VH: B1 VH with D31T, G49A, T51I, S57N, K89R, N106H, V114Y
VL: B1 VL with P7E, S54N, N55K, S69L, A96N
notes: also called HC12+LC8
B23: huSP34.11.8 Fab-HF (Fab, V domains shown)
VH: B1 VH with D31T, T51I, S57N, K89R, N106H, V114Y
VL: B1 VL with P7E, S54N, N55K, S69L, A96N
notes: also called HC11+LC8
B24: huSP34.13.10 Fab-HF (Fab, V domains shown)
VH: B1 VH with D31T, T51I, S57N, S80T, K89R, N106H, V114Y
VL: B1 VL with S54N, N55K, A96N
notes: also called HC13+LC10
B25: huSP34.12.10 Fab-HF (Fab, V domains shown)
VH: B1 VH with D31T, G49A, T51I, S57N, K89R, N106H, V114Y
VL: B1 VL with S54N, N55K, A96N
notes: also called HC12+LC10
B26: huSP34.11.9 Fab-HF (Fab, V domains shown)
VH: B1 VH with D31T, T51I, S57N, K89R, N106H, V114Y
VL: B1 VL with S54N, N55K, A96N, R97L
notes: also called HC11+LC9
B27: huSP34.13.7 Fab-HF (Fab, V domains shown)
VH: B1 VH with D31T, T51I, S57N, S80T, K89R, N106H, V114Y
VL: B1 VL with P7E, G23R, S54N, N55K, S69L, A96N, R97L
notes: also called HC13+LC7
B28: huSP34.13.8 Fab-HF (Fab, V domains shown)
VH: B1 VH with D31T, T51I, S57N, S80T, K89R, N106H, V114Y
VL: B1 VL with P7E, S54N, N55K, S69L, A96N
notes: also called HC13+LC8
B29: huSP34.13.9 Fab-HF (Fab, V domains shown)
VH: B1 VH with D31T, T51I, S57N, S80T, K89R, N106H, V114Y
VL: B1 VL with S54N, N55K, A96N, R97L
notes: also called HC13+LC9
B30: huSP34.11.7 Fab-HF (Fab, V domains shown)
VH: B1 VH with D31T, T51I, S57N, K89R, N106H, V114Y
VL: B1 VL with P7E, G23R, S54N, N55K, S69L, A96N, R97L
notes: also called HC11+LC7
B31: huSP34.3.9 Fab-HF (Fab, V domains shown)
VH: B1 VH with S30N, D31T, T51I, S57N, A64D, K89R, N106H, V114Y
VL: B1 VL with S54N, N55K, A96N, R97L
notes: also called HC3+LC9
B32: huSP34.11.10 Fab-HF (Fab, V domains shown)
VH: B1 VH with D31T, T51I, S57N, K89R, N106H, V114Y
VL: B1 VL with S54N, N55K, A96N
notes: also called HC11+LC10
B33: huSP34.12.9 Fab-HF (Fab, V domains shown)
VH: B1 VH with D31T, G49A, T51I, S57N, K89R, N106H, V114Y
VL: B1 VL with S54N, N55K, A96N, R97L
notes: also called HC12+LC9
B34: huSP34.12.7 Fab-HF (Fab, V domains shown)
VH: B1 VH with D31T, G49A, T51I, S57N, K89R, N106H, V114Y
VL: B1 VL with P7E, G23R, S54N, N55K, S69L, A96N, R97L
notes: also called HC12+LC7
B35: mSP34 Fab-HF v2 (Fab, V domains shown)
VH: EVKLLESGGGLVQPKGSLKLSCAASGFTFNTYAMNWVRQAPGKGLEWVARIRSKYNNYATYYADSVKDRFTISRDDSQSILYLQMNNLKTEDTAMYYCVRHGNFGNSYVSWFAYWGQGTLVTVSA
VL: QAVVTQESALTTSPGETVTLTCRSSTGAVTTSNYANWVQEKPDHLFTGLIGGTNKRAPGVPARFSGSLIGDKAALTITGAQTEDEAIYFCALWYSNLWVFGGGTKLTVLG

Target: T1, biotinylated CD3 epsilon:delta heterodimer protein (Amsbio AMS.CDD-H52WO) (Homo sapiens (Human), UniProt P07766 23-126; P04234 22-105)
T1 construct: also called CD3 heterodimer
Assay: BLI (Octet), CD3 on SA sensor, Fab analyte
Protocol: (§1) The CD3 binding kinetics of the purified huSP34 Fabs were determined using OctetRed384 (Pall ForteBio, CA) biolayer interferometry (BLI). […] Streptavidin (SA) coated biosensors tips (Pall ForteBio, CA) were used to capture biotinylated CD3 epsilon: delta heterodimer and typical immobilization levels captured on the SA sensors were 1 nm which approximately translates to 300 ng/ml of captured protein. For kinetic measurements biosensors were first pre-wetted with assay buffer for 10 minutes to remove protective sucrose coating followed by the recommended regeneration conditions for standardization of the biosensor surface for the experiment. In order to load the biosensors with antigen, 300 ng/ml of biotinylated CD3 epsilon: delta heterodimer protein (Amsbio AMS.CDD-H52WO) was immobilized on the SA sensor for 900 seconds. The CD3 loaded biosensors were then blocked with 20 ug/ml biocytin (sigma) for 200 seconds and then dipped into assay buffer containing wells for 200 seconds to remove any non-specific protein or unbound CD3 heterodimer.
(§2) CD3 loaded and biocytin blocked biosensors were then transferred into fresh assay buffer for 200 seconds to collect a baseline read. Kinetic measurements for anti-CD3 Fab and bispecific antibody binding were performed by dipping the CD3-coated biosensors into wells containing multiple concentrations of Fab or Ab (0-300 nM) for 100 seconds followed by a 300 second dissociation time by transferring the biosensors into assay buffer containing wells. The CD3 loaded sensors were then regenerated for the next kinetic measurement. Biosensors were generated by removing bound Fabs or Ab from immobilized CD3 on SA biosensors. Regeneration conditions used consisted of 3 cycles of 5 seconds of dipping the biosensors in Regeneration Buffer (10 mM Glycine HCl pH 1.5) followed by Assay Buffer (10 mM sodium phosphate pH 7.4, 140 mM Sodium Chloride, 0.005% Tween20 with 0.2% BSA).

Binder	Kd	koff	kon
B1	289 nM	0.169 s⁻¹	582000 M⁻¹ s⁻¹
B2	314 nM	0.157 s⁻¹	

Target: T1, biotinylated CD3 epsilon:delta …
Assay: BLI (Octet), CD3 on SA sensor, Fab analyte
Remark: another data set of the same source
Protocol: as §1, §2

Binder	Kd	koff	kon
B3	178 nM	0.187 s⁻¹	1.55e+06 M⁻¹ s⁻¹
B4	303 nM	0.17 s⁻¹	560000 M⁻¹ s⁻¹
B5	8 nM	0.00357 s⁻¹	449000 M⁻¹ s⁻¹
B6	1.9 nM	0.00024 s⁻¹	131000 M⁻¹ s⁻¹
B7	14.7 nM	0.0015 s⁻¹	109000 M⁻¹ s⁻¹
B8	224 nM	0.0759 s⁻¹	339000 M⁻¹ s⁻¹
B9	4 nM	0.000303 s⁻¹	155000 M⁻¹ s⁻¹
B10	16.1 nM	0.00267 s⁻¹	171000 M⁻¹ s⁻¹
B11	87.1 nM	0.0224 s⁻¹	257000 M⁻¹ s⁻¹
B12	29.9 nM	0.00816 s⁻¹	273000 M⁻¹ s⁻¹
B13	8.1 nM	0.0014 s⁻¹	189000 M⁻¹ s⁻¹
B14	28.8 nM	0.00599 s⁻¹	208000 M⁻¹ s⁻¹
B15	9.9 nM	0.00164 s⁻¹	193000 M⁻¹ s⁻¹
B16	5.8 nM	0.00929 s⁻¹	1.6e+06 M⁻¹ s⁻¹
B17	125 nM	0.103 s⁻¹	2.08e+06 M⁻¹ s⁻¹
B18	10.8 nM	0.00118 s⁻¹	143000 M⁻¹ s⁻¹
B19	3.9 nM	0.00126 s⁻¹	345000 M⁻¹ s⁻¹
B20	6.2 nM	0.00129 s⁻¹	218000 M⁻¹ s⁻¹

Target: T1, biotinylated CD3 epsilon:delta …
Assay: BLI (Octet), CD3 on SA sensor, Fab analyte
Remark: another data set of the same source
Protocol: as §1, §2

Binder	Kd	koff	kon
B21	5.6 nM	0.00168 s⁻¹	323000 M⁻¹ s⁻¹
B22	3.4 nM	0.00166 s⁻¹	493000 M⁻¹ s⁻¹
B23	2.8 nM	0.00165 s⁻¹	610000 M⁻¹ s⁻¹
B24	1.7 nM	0.00204 s⁻¹	1.36e+06 M⁻¹ s⁻¹
B25	4.2 nM	0.00205 s⁻¹	501000 M⁻¹ s⁻¹
B6	4.4 nM	0.00113 s⁻¹	255000 M⁻¹ s⁻¹
B26	3.4 nM	0.00284 s⁻¹	898000 M⁻¹ s⁻¹
B27	2.8 nM	0.00275 s⁻¹	1.01e+06 M⁻¹ s⁻¹
B28	2.5 nM	0.00216 s⁻¹	933000 M⁻¹ s⁻¹
B29	2.7 nM	0.00361 s⁻¹	1.38e+06 M⁻¹ s⁻¹
B30	3.6 nM	0.00212 s⁻¹	613000 M⁻¹ s⁻¹
B31	3.5 nM	0.00221 s⁻¹	632000 M⁻¹ s⁻¹
B32	2.8 nM	0.00192 s⁻¹	697000 M⁻¹ s⁻¹
B33	3.2 nM	0.00335 s⁻¹	1.04e+06 M⁻¹ s⁻¹
B34	2.7 nM	0.00244 s⁻¹	966000 M⁻¹ s⁻¹
B35	5.2 nM	0.00266 s⁻¹	532000 M⁻¹ s⁻¹
